According to PMC3285539 (Nature, 2012):

T1: Rpn2 (S. cerevisiae, UniProt P32565 1-945)
T1 sequence: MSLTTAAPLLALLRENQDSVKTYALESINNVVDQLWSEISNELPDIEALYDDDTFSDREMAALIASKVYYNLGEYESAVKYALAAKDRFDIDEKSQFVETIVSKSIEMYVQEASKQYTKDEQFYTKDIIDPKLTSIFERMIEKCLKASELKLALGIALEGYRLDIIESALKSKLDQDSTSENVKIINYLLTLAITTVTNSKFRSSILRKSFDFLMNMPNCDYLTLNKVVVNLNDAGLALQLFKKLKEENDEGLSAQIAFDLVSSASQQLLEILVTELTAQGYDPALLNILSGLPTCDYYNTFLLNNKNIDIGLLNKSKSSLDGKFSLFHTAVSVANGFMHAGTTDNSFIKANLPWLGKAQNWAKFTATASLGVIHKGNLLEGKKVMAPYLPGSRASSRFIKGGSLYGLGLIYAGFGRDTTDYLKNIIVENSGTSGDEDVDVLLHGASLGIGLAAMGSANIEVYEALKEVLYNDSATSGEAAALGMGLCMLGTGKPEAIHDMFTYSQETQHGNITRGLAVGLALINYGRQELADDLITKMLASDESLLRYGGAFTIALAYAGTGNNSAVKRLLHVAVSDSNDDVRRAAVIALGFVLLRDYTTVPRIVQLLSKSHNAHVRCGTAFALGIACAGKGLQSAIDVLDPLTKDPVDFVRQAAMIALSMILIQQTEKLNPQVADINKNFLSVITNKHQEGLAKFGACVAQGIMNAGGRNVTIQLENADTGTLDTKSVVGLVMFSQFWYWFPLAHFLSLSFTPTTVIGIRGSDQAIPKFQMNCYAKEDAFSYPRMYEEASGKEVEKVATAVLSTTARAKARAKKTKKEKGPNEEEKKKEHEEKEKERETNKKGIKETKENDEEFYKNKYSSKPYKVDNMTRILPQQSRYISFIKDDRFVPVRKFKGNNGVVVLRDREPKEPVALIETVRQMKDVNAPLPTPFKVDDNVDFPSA

T2: Rpn5 (S. cerevisiae, UniProt Q12250 1-445)
T2 sequence: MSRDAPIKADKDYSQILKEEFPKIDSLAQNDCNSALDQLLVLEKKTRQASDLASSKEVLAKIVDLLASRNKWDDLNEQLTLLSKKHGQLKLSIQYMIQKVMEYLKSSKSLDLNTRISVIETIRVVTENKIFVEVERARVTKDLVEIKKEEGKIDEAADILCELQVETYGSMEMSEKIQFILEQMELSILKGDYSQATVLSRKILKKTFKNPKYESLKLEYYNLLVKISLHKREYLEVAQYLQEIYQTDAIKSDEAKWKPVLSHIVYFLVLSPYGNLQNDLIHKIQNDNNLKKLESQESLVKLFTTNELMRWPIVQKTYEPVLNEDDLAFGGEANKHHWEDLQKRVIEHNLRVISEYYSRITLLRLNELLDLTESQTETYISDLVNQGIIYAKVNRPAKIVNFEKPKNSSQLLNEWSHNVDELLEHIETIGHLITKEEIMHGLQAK

T3: Rpn6 (S. cerevisiae, UniProt Q12377 1-434)
T3 sequence: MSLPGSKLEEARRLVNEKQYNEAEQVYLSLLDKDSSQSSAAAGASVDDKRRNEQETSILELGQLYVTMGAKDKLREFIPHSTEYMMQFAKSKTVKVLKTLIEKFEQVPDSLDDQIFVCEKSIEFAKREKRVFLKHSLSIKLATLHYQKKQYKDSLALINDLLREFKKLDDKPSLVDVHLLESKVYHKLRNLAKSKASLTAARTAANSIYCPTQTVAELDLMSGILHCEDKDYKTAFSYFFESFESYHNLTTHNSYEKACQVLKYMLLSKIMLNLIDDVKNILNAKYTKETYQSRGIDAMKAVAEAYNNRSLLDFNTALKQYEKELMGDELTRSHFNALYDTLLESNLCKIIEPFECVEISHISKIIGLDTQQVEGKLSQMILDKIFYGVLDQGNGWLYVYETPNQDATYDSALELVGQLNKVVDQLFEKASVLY

T4: Rpn1 (S. cerevisiae, UniProt P38764 1-993)
T4 sequence: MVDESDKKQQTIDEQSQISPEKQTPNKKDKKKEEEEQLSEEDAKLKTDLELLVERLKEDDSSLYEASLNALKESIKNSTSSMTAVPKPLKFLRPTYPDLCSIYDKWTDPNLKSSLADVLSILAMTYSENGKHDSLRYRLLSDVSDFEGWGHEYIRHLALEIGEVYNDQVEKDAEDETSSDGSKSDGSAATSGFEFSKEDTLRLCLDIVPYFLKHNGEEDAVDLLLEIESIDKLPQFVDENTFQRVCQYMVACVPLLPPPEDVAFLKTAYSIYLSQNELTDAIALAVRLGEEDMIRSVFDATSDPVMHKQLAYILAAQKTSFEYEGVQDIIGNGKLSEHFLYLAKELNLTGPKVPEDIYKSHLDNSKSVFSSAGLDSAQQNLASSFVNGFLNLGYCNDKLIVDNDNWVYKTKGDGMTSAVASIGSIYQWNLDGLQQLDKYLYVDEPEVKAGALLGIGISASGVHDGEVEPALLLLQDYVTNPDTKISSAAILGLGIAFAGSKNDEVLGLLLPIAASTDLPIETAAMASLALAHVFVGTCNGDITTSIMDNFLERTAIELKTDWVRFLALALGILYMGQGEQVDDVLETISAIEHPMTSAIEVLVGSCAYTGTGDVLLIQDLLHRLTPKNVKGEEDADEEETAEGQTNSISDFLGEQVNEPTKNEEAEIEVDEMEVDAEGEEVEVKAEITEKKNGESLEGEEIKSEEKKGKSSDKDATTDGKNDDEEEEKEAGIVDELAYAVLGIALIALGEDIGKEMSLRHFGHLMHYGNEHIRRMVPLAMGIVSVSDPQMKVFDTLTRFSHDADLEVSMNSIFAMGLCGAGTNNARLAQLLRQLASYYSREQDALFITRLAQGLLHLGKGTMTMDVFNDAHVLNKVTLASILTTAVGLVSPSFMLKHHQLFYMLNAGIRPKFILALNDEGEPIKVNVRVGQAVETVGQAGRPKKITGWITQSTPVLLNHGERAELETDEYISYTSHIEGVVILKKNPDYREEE

B1: Rpt3 (natural protein)
chain: MEELGIVTPVEKAVEEKPAVKSYASLLAQLNGTVNNNSALSNVNSDIYFKLKKLEKEYELLTLQEDYIKDEQRHLKRELKRAQEEVKRIQSVPLVIGQFLEPIDQNTGIVSSTTGMSYVVRILSTLDRELLKPSMSVALHRHSNALVDILPPDSDSSISVMGENEKPDVTYADVGGLDMQKQEIREAVELPLVQADLYEQIGIDPPRGVLLYGPPGTGKTMLVKAVANSTKAAFIRVNGSEFVHKYLGEGPRMVRDVFRLARENAPSIIFIDEVDSIATKRFDAQTGSDREVQRILIELLTQMDGFDQSTNVKVIMATNRADTLDPALLRPGRLDRKIEFPSLRDRRERRLIFGTIASKMSLAPEADLDSLIIRNDSLSGAVIAAIMQEAGLRAVRKNRYVILQSDLEEAYATQVKTDNTVDKFDFYK
B2: Rpn13 (natural protein)
chain: MSMSSTVIKFRAGVCEYNEDSRLCTPIPVQGEIEIKPNEEEELGFWDFEWRPTEKPVGRELDPISLILIPGETMWVPIKSSKSGRIFALVFSSNERYFFWLQEKNSGNLPLNELSAKDKEIYNKMIGVLNNSSESDEEESNDEKQKAQDVDVSMQD
B3: Ubp6 (enzyme)
chain: MSGETFEFNIRHSGKVYPITLSTDATSADLKSKAEELTQVPSARQKYMVKGGLSGEESIKIYPLIKPGSTVMLLGTPDANLISKPAKKNNFIEDLAPEQQVQQFAQLPVGFKNMGNTCYLNATLQALYRVNDLRDMILNYNPSQGVSNSGAQDEEIHKQIVIEMKRCFENLQNKSFKSVLPIVLLNTLRKCYPQFAERDSQGGFYKQQDAEELFTQLFHSMSIVFGDKFSEDFRIQFKTTIKDTANDNDITVKENESDSKLQCHISGTTNFMRNGLLEGLNEKIEKRSDLTGANSIYSVEKKISRLPKFLTVQYVRFFWKRSTNKKSKILRKVVFPFQLDVADMLTPEYAAEKVKVRDELRKVEKEKNEKEREIKRRKFDPSSSENVMTPREQYETQVALNESEKDQWLEEYKKHFPPNLEKGENPSCVYNLIGVITHQGANSESGHYQAFIRDELDENKWYKFNDDKVSVVEKEKIESLAGGGESDSALILMYKGFGL
B4: 20S core subunit α1 (natural protein)
chain: MSGAAAASAAGYDRHITIFSPEGRLYQVEYAFKATNQTNINSLAVRGKDCTVVISQKKVPDKLLDPTTVSYIFCISRTIGMVVNGPIPDARNAALRAKAEAAEFRYKYGYDMPCDVLAKRMANLSQIYTQRAYMRPLGVILTFVSVDEELGPSIYKTDPAGYYVGYKATATGPKQQEITTNLENHFKKSKIDHINEESWEKVVEFAITHMIDALGTEFSKNDLEVGVATKDKFFTLSAENIEERLVAIAEQD
B5: 20S core subunit α2 (natural protein)
chain: MTDRYSFSLTTFSPSGKLGQIDYALTAVKQGVTSLGIKATNGVVIATEKKSSSPLAMSETLSKVSLLTPDIGAVYSGMGPDYRVLVDKSRKVAHTSYKRIYGEYPPTKLLVSEVAKIMQEATQSGGVRPFGVSLLIAGHDEFNGFSLYQVDPSGSYFPWKATAIGKGSVAAKTFLEKRWNDELELEDAIHIALLTLKESVEGEFNGDTIELAIIGDENPDLLGYTGIPTDKGPRFRKLTSQEINDRLEAL
B6: Rpn12 (natural protein)
chain: MPSLAELTKSLSIAFENGDYAACEKLLPPIKIELIKNNLLIPDLSIQNDIYLNDLMITKRILEVGALASIQTFNFDSFENYFNQLKPYYFSNNHKLSESDKKSKLISLYLLNLLSQNNTTKFHSELQYLDKHIKNLEDDSLLSYPIKLDRWLMEGSYQKAWDLLQSGSQNISEFDSFTDILKSAIRDEIAKNTELSYDFLPLSNIKALLFFNNEKETEKFALERNWPIVNSKVYFNNQSKEKADYEDEMMHEEDQKTNIIEKAMDYAISIENIV
B7: Rpn7 (natural protein)
chain: MVDVEEKSQEVEYVDPTVNRVPNYEVSEKAFLLTQSKVSIEQRKEAAEFVLAKIKEEEMAPYYKYLCEEYLVNNGQSDLEHDEKSDSLNEWIKFDQELYNELCKKNESKIKELNEKIQKLEEDDEGELEQAQAWINLGEYYAQIGDKDNAEKTLGKSLSKAISTGAKIDVMLTIARLGFFYNDQLYVKEKLEAVNSMIEKGGDWERRNRYKTYYGIHCLAVRNFKEAAKLLVDSLATFTSIELTSYESIATYASVTGLFTLERTDLKSKVIDSPELLSLISTTAALQSISSLTISLYASDYASYFPYLLETYANVLIPCKYLNRHADFFVREMRRKVYAQLLESYKTLSLKSMASAFGVSVAFLDNDLGKFIPNKQLNCVIDRVNGIVETNRPDNKNAQYHLLVKQGDGLLTKLQKYGAAVRLTGSDRV
B8: 20S core subunit α3 (natural protein)
chain: MGSRRYDSRTTIFSPEGRLYQVEYALESISHAGTAIGIMASDGIVLAAERKVTSTLLEQDTSTEKLYKLNDKIAVAVAGLTADAEILINTARIHAQNYLKTYNEDIPVEILVRRLSDIKQGYTQHGGLRPFGVSFIYAGYDDRYGYQLYTSNPSGNYTGWKAISVGANTSAAQTLLQMDYKDDMKVDDAIELALKTLSKTTDSSALTYDRLEFATIRKGANDGEVYQKIFKPQEIKDILVKTGITKKDEDEEADEDMK

Key:
Rpn2 = target: T1, Rpn2; assay: cryo-EM structure
Rpn5 = target: T2, Rpn5; assay: cryo-EM structure
Rpn6 = target: T3, Rpn6; assay: cryo-EM structure
Rpn1 = target: T4, Rpn1; assay: electron microscopy, variance maps
Rpt3 = target: B1; assay: cryo-EM structure
Rpt2 = Rpt2 (S. cerevisiae, UniProt P40327 1-437); assay: cryo-EM structure
Chain of Rpt2 (P40327 whole entry): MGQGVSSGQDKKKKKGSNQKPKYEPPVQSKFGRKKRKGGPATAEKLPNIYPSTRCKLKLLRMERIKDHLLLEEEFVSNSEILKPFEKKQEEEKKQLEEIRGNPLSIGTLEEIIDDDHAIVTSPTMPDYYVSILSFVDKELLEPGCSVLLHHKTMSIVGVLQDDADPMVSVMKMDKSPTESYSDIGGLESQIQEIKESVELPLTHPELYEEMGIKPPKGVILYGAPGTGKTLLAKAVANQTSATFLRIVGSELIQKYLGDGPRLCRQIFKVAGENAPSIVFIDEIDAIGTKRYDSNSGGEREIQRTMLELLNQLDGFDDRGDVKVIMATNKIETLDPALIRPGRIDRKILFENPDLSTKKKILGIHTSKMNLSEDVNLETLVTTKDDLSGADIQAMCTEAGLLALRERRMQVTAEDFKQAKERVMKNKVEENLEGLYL

Binder: B1
- binding result (Rpn2): binds
- binding result (Rpn5): binds
- binding result (Rpn6): binds

Binder: B2
- binding result (Rpn2): binds

Binder: B3
- binding result (Rpn1): binds

Binder: B4
- binding result (Rpt3): binds
- binding result (Rpn5): binds

Binder: B5
- binding result (Rpt3): binds
- binding result (Rpn6): binds

Binder: B6
- binding result (Rpn2): binds

Binder: B7
- binding result (Rpt2): binds

Binder: B8
- binding result (Rpt2): binds
